Experimental data: patent US20120213761

Molecular target: T1, tumor necrosis factor receptor-associated factor 2 (TRAF2), endogenous, in human cardiac tissue, Q12933
T1 chain: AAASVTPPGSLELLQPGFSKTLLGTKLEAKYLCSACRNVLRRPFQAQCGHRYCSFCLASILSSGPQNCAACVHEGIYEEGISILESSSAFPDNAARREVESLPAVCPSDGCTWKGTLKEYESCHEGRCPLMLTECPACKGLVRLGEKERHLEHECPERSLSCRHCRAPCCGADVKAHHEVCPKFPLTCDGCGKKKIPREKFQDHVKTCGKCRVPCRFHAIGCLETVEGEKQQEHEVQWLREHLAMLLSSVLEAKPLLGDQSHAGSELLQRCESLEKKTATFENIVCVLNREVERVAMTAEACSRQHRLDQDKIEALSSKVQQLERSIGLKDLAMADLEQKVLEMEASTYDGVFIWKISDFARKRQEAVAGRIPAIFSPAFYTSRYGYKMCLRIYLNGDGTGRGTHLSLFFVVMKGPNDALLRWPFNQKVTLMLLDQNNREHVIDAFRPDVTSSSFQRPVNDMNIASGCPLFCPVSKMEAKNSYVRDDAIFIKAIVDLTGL

B1: recombinant GSTP1 (Assay Design, Ann Arbor, Mich.) (protein)
chain: PPYTVVYFPVRGRCAALRMLLADQGQSWKEEVVTVETWQEGSLKASCLYGQLPKFQDGDLTLYQSNTILRHLGRTLGLYGKDQQEAALVDMVNDGVEDLRCKYISLIYTNYEAGKDDYVKALPGQLKPFETLLSQNQGGKTFIVGDQISFADYNLLDLLLIHEVLAPGCLDAFPLLSAYVGRLSARPKLKAFLASPEYVNLPINGNGKQ
JNK1 and p38 activation (active JNK / active p38 protein, Western blot) in cardiac tissue cultures: acts as a negative regulator of JNK1 and p38 activation | TNF-α-induced JNK and p38 activation in DCM cardiac tissue cultures (Western blot): higher GSTP1 concentrations inhibit TNF-α-induced JNK and p38 activation in DCM
